This note sets out measurements from patent publication US7642244 (Hoffmann-La Roche, dated 2010).

Starred links: 1 amine or outer side, 2 acyl side, 3 side chain; linkers in the order of their positions; H or OH if unused. Non-standard residues stand in square brackets, D forms with d. Pqa = 4-oxo-6-(1-piperazinyl)-3(4H)-quinazoline-acetic acid, O=C(Cn1cnc2ccc(N3CCN([*:1])CC3)cc2c1=O)[*:2]; Phe(3,4-Cl2) = N[C@@H](Cc1ccc(Cl)c(Cl)c1)C(=O)O; Phe(4-CF3) = N[C@@H](Cc1ccc(C(F)(F)F)cc1)C(=O)O; Phe(F5) = N[C@@H](Cc1c(F)c(F)c(F)c(F)c1F)C(=O)O; Phe(3-F) = N[C@@H](Cc1cccc(F)c1)C(=O)O; NMeR = CN[C@@H](CCCNC(=N)N)C(=O)O Where only a bound is given, the exact number is not on record here.

T1: Y5R
T1 sequence (Q15761 whole entry, species assumed, looked up): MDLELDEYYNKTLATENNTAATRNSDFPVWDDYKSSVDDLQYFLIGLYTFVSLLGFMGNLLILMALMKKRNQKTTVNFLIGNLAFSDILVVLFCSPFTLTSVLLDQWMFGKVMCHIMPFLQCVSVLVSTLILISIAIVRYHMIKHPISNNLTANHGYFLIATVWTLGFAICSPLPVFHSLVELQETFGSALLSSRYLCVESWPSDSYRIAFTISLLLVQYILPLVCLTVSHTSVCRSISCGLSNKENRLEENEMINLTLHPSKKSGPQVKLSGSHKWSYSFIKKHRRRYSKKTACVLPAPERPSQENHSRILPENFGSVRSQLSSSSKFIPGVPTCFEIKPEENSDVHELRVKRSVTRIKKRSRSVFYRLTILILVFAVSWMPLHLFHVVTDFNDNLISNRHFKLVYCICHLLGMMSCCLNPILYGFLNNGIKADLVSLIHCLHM

T2: human NPY2 receptor (human, UniProt P49146 1-381)
T2 sequence (looked up): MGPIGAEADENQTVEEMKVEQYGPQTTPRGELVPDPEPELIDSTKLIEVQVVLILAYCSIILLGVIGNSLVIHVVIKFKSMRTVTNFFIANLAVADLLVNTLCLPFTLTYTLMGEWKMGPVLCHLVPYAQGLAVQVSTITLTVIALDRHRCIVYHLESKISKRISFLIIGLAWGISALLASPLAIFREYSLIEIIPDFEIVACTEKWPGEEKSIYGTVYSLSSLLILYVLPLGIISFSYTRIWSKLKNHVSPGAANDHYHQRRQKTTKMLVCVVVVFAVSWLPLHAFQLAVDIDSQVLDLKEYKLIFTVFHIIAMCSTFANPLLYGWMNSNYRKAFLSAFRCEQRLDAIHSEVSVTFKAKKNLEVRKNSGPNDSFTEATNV

B1: H-Ile-Nle-Pqa-Arg-His-Tyr-Leu-Asn-Trp-Val-Thr-Arg-Gln-(NMe)Arg-Tyr-NH2 (peptide)
peptide: IXXRHYLNWVTRQRY
modifications: Nle as second residue; Pqa as third residue; (NMe)Arg as penultimate residue; C-terminal amide (NH2)
B2: Pentoyl-Ile-Lys-Pqa-Arg-His-Tyr-Leu-Asn-Trp-Val-Thr-Arg-Gln-(NMe)Arg-Tyr-NH2 (peptide)
peptide: IKXRHYLNWVTRQRY
HELM: PEPTIDE1{[CCCCC(=O)[*:2]].I.K.[O=C(Cn1cnc2ccc(N3CCN([*:1])CC3)cc2c1=O)[*:2]].R.H.Y.L.N.W.V.T.R.Q.[meR].Y.[am]}$$$$V2.0
SMILES: CCCCC(=O)N[C@H](C(=O)N[C@@H](CCCCN)C(=O)N1CCN(c2ccc3ncn(CC(=O)N[C@@H](CCCNC(=N)N)C(=O)N[C@@H](Cc4c[nH]cn4)C(=O)N[C@@H](Cc4ccc(O)cc4)C(=O)N[C@@H](CC(C)C)C(=O)N[C@@H](CC(N)=O)C(=O)N[C@@H](Cc4c[nH]c5ccccc45)C(=O)N[C@H](C(=O)N[C@H](C(=O)N[C@@H](CCCNC(=N)N)C(=O)N[C@@H](CCC(N)=O)C(=O)N(C)[C@@H](CCCNC(=N)N)C(=O)N[C@@H](Cc4ccc(O)cc4)C(N)=O)[C@@H](C)O)C(C)C)c(=O)c3c2)CC1)[C@@H](C)CC
B3: H-Ile-Lys-Pqa-Arg-His-Tyr-Leu-Asn-Leu-Val-Thr-Arg-Gln-(NMe)Arg-4 Methoxy-Phe-NH2 (peptide)
peptide: IKXRHYLNLVTRQRF
modifications: Pqa as third residue; (NMe)Arg as penultimate residue; 4 Methoxy-Phe as C-terminal residue; C-terminal amide (NH2)
B4: H-Ile-Lys-Pqa-Arg-His-Tyr-Leu-Asn-Leu-Val-Thr-Arg-Gln-(NMe)Arg-2-Nal-NH2 (peptide)
peptide: IKXRHYLNLVTRQRX
modifications: Pqa as third residue; (NMe)Arg as penultimate residue; 2-Nal (2-Naphthyl Alanine) as C-terminal residue; C-terminal amide (NH2)
B5: H-Ile-Lys-Pqa-Arg-His-Tyr-Leu-Asn-Leu-Val-Thr-Arg-Gln-(NMe)Arg-1-Nal-NH2 (peptide)
peptide: IKXRHYLNLVTRQRX
modifications: Pqa as third residue; (NMe)Arg as penultimate residue; 1-Nal (1-Naphthyl Alanine) as C-terminal residue; C-terminal amide (NH2)

In the first experiment the target is Y1R. The experiment is described as follows: cell-based or functional assay.
Y1R, sequence (P25929 whole entry): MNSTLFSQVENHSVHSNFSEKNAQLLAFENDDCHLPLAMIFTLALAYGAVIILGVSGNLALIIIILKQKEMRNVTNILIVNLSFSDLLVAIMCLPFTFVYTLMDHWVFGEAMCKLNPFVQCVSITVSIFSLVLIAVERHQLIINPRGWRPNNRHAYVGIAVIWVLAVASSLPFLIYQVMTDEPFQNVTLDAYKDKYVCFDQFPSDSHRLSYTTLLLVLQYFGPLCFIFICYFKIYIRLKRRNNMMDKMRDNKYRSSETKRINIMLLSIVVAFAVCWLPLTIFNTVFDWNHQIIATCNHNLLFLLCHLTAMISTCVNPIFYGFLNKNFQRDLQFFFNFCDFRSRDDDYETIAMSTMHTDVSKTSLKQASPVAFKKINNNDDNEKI
For the molecule B1, the “Y1R EC50 (nM) FLIPR” value was over 5000 nM.

Consider B2, for which the “Y1R EC50 (nM) FLIPR” value was over 5000 nM.

The next experiment deals with Y4R. The experiment is described as follows: cell-based or functional assay.
With B1, the “Y4R EC50 (nM) FLIPR” value was over 5000 nM.

Take B2: the “Y4R EC50 (nM) FLIPR” value is over 5000 nM.

The next experiment deals with T1, Y5R. The experiment is described as follows: cell-based or functional assay.
Turning to B1, the “Y5R EC50 (nM) FLIPR” value was over 5000 nM.

As for B2, the “Y5R EC50 (nM) FLIPR” value was over 5000 nM.

A further experiment has as its target T2, human NPY2 receptor. The experiment is described as follows: cell-based or functional assay.
As for B3, the “Y2R EC50 (nM) FLIPR” value turned out to be 0.74 nM and the “Y2R EC50 (nM) cAMP” value is 0.55 nM.

H-IK[Pqa]RHYLNLVTRQ[NMeR][Phe(F5)]-NH2 [H-Ile-Lys-Pqa-Arg-His-Tyr-Leu-Asn-Leu-Val-Thr-Arg-Gln-(NMe)Arg-2,3,4,5,6 Pentafluoro-Phe-NH2]: the “Y2R EC50 (nM) FLIPR” value worked out at 11.9 nM and the “Y2R EC50 (nM) cAMP” value worked out at 2.5 nM.

For H-IK[Pqa]RHYLNLVTRQ[NMeR][Phe(3,4-Cl2)]-NH2 [H-Ile-Lys-Pqa-Arg-His-Tyr-Leu-Asn-Leu-Val-Thr-Arg-Gln-(NMe)Arg-3,4-dichloro-Phe-NH2], the “Y2R EC50 (nM) FLIPR” value is 4.03 nM and the “Y2R EC50 (nM) cAMP” value came to 1.47 nM.

On to H-IK[Pqa]RHYLNLVTRQ[NMeR]F-NH2 [H-Ile-Lys-Pqa-Arg-His-Tyr-Leu-Asn-Leu-Val-Thr-Arg-Gln-(NMe)Arg-Phe-NH2], for which the “Y2R EC50 (nM) FLIPR” value amounted to 1.54 nM and the “Y2R EC50 (nM) cAMP” value was determined as 0.69 nM.

Take H-IK[Pqa]RHYLNLVTRQ[NMeR][Phe(4-CF3)]-NH2 [H-Ile-Lys-Pqa-Arg-His-Tyr-Leu-Asn-Leu-Val-Thr-Arg-Gln-(NMe)Arg-4-trifluoro methyl-Phe-NH2]: the “Y2R EC50 (nM) FLIPR” value was determined as 6.13 nM and the “Y2R EC50 (nM) cAMP” value worked out at 3.55 nM.

H-IK[Pqa]RHYLNLVTRQ[NMeR][Phe(3-F)]-NH2 [H-Ile-Lys-Pqa-Arg-His-Tyr-Leu-Asn-Leu-Val-Thr-Arg-Gln-(NMe)Arg-3Fluoro-Phe-NH2]: the “Y2R EC50 (nM) FLIPR” value came to 0.635 nM and the “Y2R EC50 (nM) cAMP” value was 0.75 nM.

B4: the “Y2R EC50 (nM) FLIPR” value is 4.11 nM and the “Y2R EC50 (nM) cAMP” value was 2.4 nM.

Turning to B5, the “Y2R EC50 (nM) FLIPR” value came out at 2.73 nM and the “Y2R EC50 (nM) cAMP” value is 1.14 nM.

B1: the “Y2R EC50 (nM) FLIPR” value was determined as 8.1 nM and the “Y2R EC50 (nM) cAMP” value was determined as 0.108 nM.

Consider B2, for which the “Y2R EC50 (nM) FLIPR” value amounted to 0.873 nM and the “Y2R EC50 (nM) cAMP” value is 0.51 nM.
